Measurements: IntAct's records for PubMed 25910212

B1: Cytochrome P450 1A1 (Homo sapiens), P04798 (parent)
chain: MLFPISMSATEFLLASVIFCLVFWVIRASRPQVPKGLKNPPGPWGWPLIGHMLTLGKNPHLALSRMSQQYGDVLQIRIGSTPVVVLSGLDTIRQALVRQGDDFKGRPDLYTFTLISNGQSMSFSPDSGPVWAARRRLAQNGLKSFSIASDPASSTSCYLEEHVSKEAEVLISTLQELMAGPGHFNPYRYVVVSVTNVICAICFGRRYDHNHQELLSLVNLNNNFGEVVGSGNPADFIPILRYLPNPSLNAFKDLNEKFYSFMQKMVKEHYKTFEKGHIRDITDSLIEHCQEKQLDENANVQLSDEKIINIVLDLFGAGFDTVTTAISWSLMYLVMNPRVQRKIQEELDTVIGRSRRPRLSDRSHLPYMEAFILETFRHSSFVPFTIPHSTTRDTSLKGFYIPKGRCVFVNQWQINHDQKLWVNPSEFLPERFLTPDGAIDKVLSEKVIIFGMGKRKCIGETIARWEVFLFLAILLQRVEFSVPLGVKVDMTPIYGLTMKHACCEHFQMQLRS
B2: Progranulin (Homo sapiens), P28799 (parent)
chain: MWTLVSWVALTAGLVAGTRCPDGQFCPVACCLDPGGASYSCCRPLLDKWPTTLSRHLGGPCQVDAHCSAGHSCIFTVSGTSSCCPFPEAVACGDGHHCCPRGFHCSADGRSCFQRSGNNSVGAIQCPDSQFECPDFSTCCVMVDGSWGCCPMPQASCCEDRVHCCPHGAFCDLVHTRCITPTGTHPLAKKLPAQRTNRAVALSSSVMCPDARSRCPDGSTCCELPSGKYGCCPMPNATCCSDHLHCCPQDTVCDLIQSKCLSKENATTDLLTKLPAHTVGDVKCDMEVSCPDGYTCCRLQSGAWGCCPFTQAVCCEDHIHCCPAGFTCDTQKGTCEQGPHQVPWMEKAPAHLSLPDPQALKRDVPCDNVSSCPSSDTCCQLTSGEWGCCPIPEAVCCSDHQHCCPQGYTCVAEGQCQRGSEIVAGLEKMPARRASLSHPRDIGCDQHTSCPVGQTCCPSLGGSWACCQLPHAVCCEDRQHCCPAGYTCNVKARSCEKEVVSAQPATFLARSPHVGVKDVECGEGHFCHDNQTCCRDNRQGWACCPYRQGVCCADRRHCCPAGFRCAARGTKCLRREAPRWDAPLRDPALRQLL
partner: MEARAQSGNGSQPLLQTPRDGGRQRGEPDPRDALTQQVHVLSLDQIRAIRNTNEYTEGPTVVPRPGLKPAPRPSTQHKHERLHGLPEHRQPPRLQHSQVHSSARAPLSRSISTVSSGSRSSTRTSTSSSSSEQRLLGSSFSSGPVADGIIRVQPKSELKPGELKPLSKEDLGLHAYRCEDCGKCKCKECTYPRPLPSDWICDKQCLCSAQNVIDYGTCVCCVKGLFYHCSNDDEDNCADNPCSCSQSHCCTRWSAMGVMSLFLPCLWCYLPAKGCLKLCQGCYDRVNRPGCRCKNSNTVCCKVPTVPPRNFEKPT
B3: Carbonic anhydrase-related protein (Homo sapiens), P35219 (parent)
chain: MADLSFIEDTVAFPEKEEDEEEEEEGVEWGYEEGVEWGLVFPDANGEYQSPINLNSREARYDPSLLDVRLSPNYVVCRDCEVTNDGHTIQVILKSKSVLSGGPLPQGHEFELYEVRFHWGRENQRGSEHTVNFKAFPMELHLIHWNSTLFGSIDEAVGKPHGIAIIALFVQIGKEHVGLKAVTEILQDIQYKGKSKTIPCFNPNTLLPDPLLRDYWVYEGSLTIPPCSEGVTWILFRYPLTISQLQIEEFRRLRTHVKGAELVEGCDGILGDNFRPTQPLSDRVIRAAFQ
partner: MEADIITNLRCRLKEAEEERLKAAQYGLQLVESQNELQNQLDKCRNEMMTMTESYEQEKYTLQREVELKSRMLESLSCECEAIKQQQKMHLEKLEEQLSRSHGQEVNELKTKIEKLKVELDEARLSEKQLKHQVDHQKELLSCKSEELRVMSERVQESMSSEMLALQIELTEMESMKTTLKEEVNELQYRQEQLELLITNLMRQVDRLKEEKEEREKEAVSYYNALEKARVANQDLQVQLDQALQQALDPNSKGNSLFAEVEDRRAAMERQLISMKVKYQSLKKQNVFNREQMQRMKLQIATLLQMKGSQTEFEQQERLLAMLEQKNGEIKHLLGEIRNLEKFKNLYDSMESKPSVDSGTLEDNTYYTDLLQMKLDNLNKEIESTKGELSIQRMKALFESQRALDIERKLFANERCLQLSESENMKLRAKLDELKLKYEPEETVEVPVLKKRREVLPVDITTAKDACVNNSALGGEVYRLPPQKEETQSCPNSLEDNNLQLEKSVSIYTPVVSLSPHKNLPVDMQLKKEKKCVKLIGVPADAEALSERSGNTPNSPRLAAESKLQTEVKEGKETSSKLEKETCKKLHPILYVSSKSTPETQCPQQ
B4: Tyrosine aminotransferase (Homo sapiens), P17735 (parent)
chain: MDPYMIQMSSKGNLPSILDVHVNVGGRSSVPGKMKGRKARWSVRPSDMAKKTFNPIRAIVDNMKVKPNPNKTMISLSIGDPTVFGNLPTDPEVTQAMKDALDSGKYNGYAPSIGFLSSREEIASYYHCPEAPLEAKDVILTSGCSQAIDLCLAVLANPGQNILVPRPGFSLYKTLAESMGIEVKLYNLLPEKSWEIDLKQLEYLIDEKTACLIVNNPSNPCGSVFSKRHLQKILAVAARQCVPILADEIYGDMVFSDCKYEPLATLSTDVPILSCGGLAKRWLVPGWRLGWILIHDRRDIFGNEIRDGLVKLSQRILGPCTIVQGALKSILCRTPGEFYHNTLSFLKSNADLCYGALAAIPGLRPVRPSGAMYLMVGIEMEHFPEFENDVEFTERLVAEQSVHCLPATCFEYPNFIRVVITVPEVMMLEACSRIQEFCEQHYHCAEGSQEECDK

Variants of: B1
Settings: with CMTM5, Q96DZ9-2
Sequence of CMTM5, Q96DZ9-2 (Q96DZ9 other isoform, or with tags, fused parts or gaps): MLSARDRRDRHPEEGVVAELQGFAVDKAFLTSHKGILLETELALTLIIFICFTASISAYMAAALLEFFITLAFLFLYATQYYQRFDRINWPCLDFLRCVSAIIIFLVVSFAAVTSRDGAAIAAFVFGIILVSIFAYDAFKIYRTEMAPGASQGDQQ

effect of a mutation on the interaction | Variant
with no effect | I462V

Variants of: B2
Settings: with spy2_human SPRY2, O43597

effect of a mutation on the interaction | Variant
disrupting interaction strength | A9D
disrupting interaction strength | R432C
with no effect | P248L
disrupting interaction strength | P451L

Variants of: B3
Settings: with spdly_human SPDL1, Q96EA4

effect of a mutation on the interaction | Variant
disrupting interaction strength | S100P

Variants of: B4
Settings: with UBE3A

effect of a mutation on the interaction | Variant
disrupting interaction strength | R433W
disrupting interaction strength | P220S

Variants of: B4
Settings: with glna_human GLUL

effect of a mutation on the interaction | Variant
disrupting interaction strength | R433W
with no effect | P220S
